The target of the test is human TNF-α (human) (UniProt P01375). Kind of test: cell-based or functional assay.

This is an account of results in US20230242634A1.

Chain of UniProt P01375 (P01375 77-233 limits assumed): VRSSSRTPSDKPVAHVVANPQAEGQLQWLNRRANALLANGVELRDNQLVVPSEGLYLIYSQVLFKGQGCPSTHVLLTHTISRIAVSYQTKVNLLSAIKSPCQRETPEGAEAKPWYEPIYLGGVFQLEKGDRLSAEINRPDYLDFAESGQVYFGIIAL

Regarding “TA001 (the original Adalimumab) (antibody)”, the IC50 (M), TNF-α-mediated killing of L929 cells (CCK-8) came out at 1.48e-08 M.
